The target in the assay is γ-secretase (human; HeLa cell membrane / solubilized HeLa membrane; endogenous in HEK293 cells) (human, UniProt P49768 1-467; Q92542 34-709; Q9NZ42 1-101; Q96BI3 1-265).
The IC50 is the concentration needed to halve the response being measured. As for LVFFAKD [Aβ17-23 heptapeptide with the Italian mutation (E22K)], half-maximal inhibition (IC50) was put at 2130 nM.

LVFFAGD [Aβ17-23 heptapeptide with the Arctic mutation (E22G)] had an IC50 of 3890 nM.

Regarding LVFFAQD [Aβ17-23 heptapeptide with the Dutch mutation (E22Q)], inhibition was half-maximal at 2120 nM (IC50).

LVFFAEN [Aβ17-23 heptapeptide with the Iowa mutation (D23N)] gave an IC50 of 2940 nM.

The molecule LVFFGED [Aβ17-23 heptapeptide with the Flemish mutation (A21G)] yielded an IC50 of 5270 nM.

(Values after patent publication US20100285988A1 (published 2010).)
